# Test: soluble on expression in E. coli; label from the status in PepcDB or PDB records
row,Sequence,soluble on expression in E. coli
1,MSLEHWNKTFCLEVKGDYACFTRPEMKVERVSYDVITPSAARGIFEAIFWKPAIRWRIRKIEVLNPIKWISVRRNEVGQTASERSDGIFIETARQQRAGLFLRDVAYRLHAELEFVPPSERPDAKRPVPESLQDGRETSELRKDENPGKYYAIFERRARKGQCFNQPYLGCREFSCEFRLVDDLANEPPPISETRNLGFMLYDLDFQKNLKEPPPAFFPACLEKGVIKVPDWESEEVRKEGHHHHHH,soluble
2,MNFDWQMPRDPFADDPNDPASFIEDDEQAPPLTEAERQHIREDLALVKRFKEALEPRGINGIFFLCEDCDEDHYYDWDIMAANMRATLAGELAPVHEPSVNPNPHAYVPWDYCLGYLDGLEAPRMRFF,not soluble
3,GPGSMSLIFFCIIPHPFTRTKCSKVSIIMQMLAPGAFFNALKVRGVTHFFGVPDPILKYFCAFVASHTTPKEHIITANEGNAVAMAAGYHLATGGLPLVYMKNSGLGDALNPLISLTHAEACSIPMFIVVGWRGAPDAGNELPCAAEGRLTEGILRAAEVPYIILSSACGNGEQSMETALDMALKHVHNSRTPYAFLVPPNFFEECAYEGVGEGIAELPMTRREAVEQALRQIDRGDIVVGAASFLAREIFEVQECAGMRHGPQFFPVGSMGHCSSVAAGIALAKPERQVFCFDGDGAFLMHMGSSATIGGVAAIHLIGTGETSLMRNYKHVVFNNGSHDSAGGQPTVSFDVSLTQVASACGFRTVREEPVMDLGETVRALQELKKAEGPAFLEVFVRRGGHSNPQCELPSLDESKQALTNCLRG,not soluble
4,SLAGVSYAAPWWVSLLHRLPHFDLRWEATSSQFRPEDADYQQAASAYGNGETSDGIHRATYSLRHANRTVAGVQDRVWDTAAALNRTAEPNLQSLERQLAGRQEPLRAVQRLQTGAARSSKGSAACSIPHTWQQKRGPDDDGEEETAPGPR,soluble
5,MGSDKIHHHHHHMEPEILFRKIDDLGEGPTYDERRKRVYWVDIRGKKFHYLSLENSEMKTFQSIGMISSIVPTDRDLMAATVDHGLYLIDDAGKHTLLTEVEKDQKSTRFNDGKADPFGNYVAGTMDLEEKRPIGSLYVLTGKTIRRILENLTISNGIAWNTKKKVFYHIDTPKRRVDAYSYDGKMNIERLGTAVDFRNEVGNPDGMTIDADGNLWVAHWGGNRITIHDPERQKKIDEIIFPAQNITSCVFAGNGLRDLYVSSASNGNPDDMGGSLFVVHTDYAGSKTFTFSVP,not soluble
6,MGKNKQNKFFQMKASANGKTADVFIYGEITKYAWEEYGEVSSITFKNELDELGDDIKTINLYINSPGGSVFETMAIIAMLQRHHAKIISYIDGIGASCASVLPMISDKIIMYANSMMMIHNAWTYASGNADQLRKAADDIERINQSMVQHYLTRAGDKLDEDTLKQLLDAETWLSAEEAMGYGLCDEIIPANNATACLDEKWMKEYKNIPQQLVNAQANISSNEMLERQKIAEEAKANADYIKTILGRIHS,not soluble
7,MDLFQAMRVYVKVVEAGSLTAAAQACSISTTMVGNHLRALEQRLGVSLLQRTTRRQRLTEFGTAYYERCLEVLGLVAESEQLAEQAQGDPSGTLRITAPLTFGSEVLAPALAGFSLRFPEVKLDLVLTNQRLDMIDNGFDIAIRLGNIPQSSPLIARLMQDYTLTICAAPSYLARHGTPAHPEDLGAHNCLAFSYPAGDEWRTAGTQWRMTGPEGEVLVDVDGSMVANTSAGLYQAACAGMGVVMLPDALVQRDLQEGRLVALLPGYHLPRRPMNLLYVQDRYRLPKVRSFVEYAMGLWGR,not soluble
8,MGSDKIHHHHHHMNYPTTRLNWPRAWRVIPSRFPAVGLFERVASPDDFDALYALEAMTNDRLRDEVGDISLVPPEERLFGPGSTCIMAAFTHLNPQGSRFSDGSYGVFYCARKRDTAIAETRYHSARFMQATREPPMRLQMRLYSVQARGEAADLRVASKSDPRIVAPDDYSYPQAIGRSLRAAGALGIVYPSVRHSGGGCLAALRTGIVKNCLHAAYLEYNWNGEGIDAVFEVNRVL,not soluble
9,MTTRNPNRCPSHPGEILAESLEHLNASKTEIARILQISRQHLHGILKGERPVTAVTAARIGKLLGNGPALWLQLQANYDTWHALRDIDVSSIPTLTANEVDTQMEHSHS,not soluble
10,MGSDKIHHHHHHMRRLPHVTWLRSFEAAARHSSFSAAAEELHLTPAAVSQQIRQLEHHLGFQLFKRLPKGVELTDIGQAYAIPVRKSFVQMQEATDGLFRVQSKSVLRVRCSISFAALILAPLLRDFAEIHPDIDVELSTAVWSDRMEGAGVDLDIRYGAACWPEQNVHPLPVEEATLVCHPDYAAQLGSALDPAWLGAADIVQIVGSETDWDRYLRLCGIDTPRPRHWMKADSSLIALQILSAGRGCALISRSFARQALSEGRLVAPFDLSLPMQESFVLVERDDLRENPGLRKLVDWLLTQRL,not soluble
11,MGSDKIHHHHHHMNGKLQSSDVKNETPYNIPLLINENVISSGISLISLWHTYADEHYRVIWPRDKKKPLIANSWVAVYTVQGCGKILLKNGEQITLHSNCIIFLKPMDIHSYHCEGLVWEQYWMEFTPTSMMDIPVGQQSVIYNGEIYNQELTEVAELITSPEAIKNNLAVAFLTKIIYQWICLMSADGKKDPQRRQIEKLIATLHASLQQRWSVADMAATIPCSEAWLRRLFLRYTGKTPKEYYLDARLDLALSLLKQQGNSVGEVADTLNFFDSFHFSKAFKHKFGYAPSAVLKNTDQHPTDASPHN,not soluble
12,LERRWRRRREAGAGAEAAAGSARPLGRQAAAARGSSPEAGAAAMAESIIIRVQSPDGVKRITATKRETAATFLKKVAKEFGFQNNGFSVYINRNKTGEITASSNKSLNLLKIKHGDLLFLFPSSLAGPSSEMETSVPPGFKVFGAPNVVEDEIDQYLSKQDGKIYRSRDPQLCRHGPLGKCVHCVPLEPFDEDYLNHLEPPVKHMSFHAYIRKLTGGADKGKFVALENISCKIKSGCEGHLPWPNGICTKCQPSAITLNRQKYRHVDNIMFENHTVADRFLDFWRKTGNQHFGYLYGRYTEHKDIPLGIRAEVAAIYEPPQIGTQNSLELLEDPKAEVVDEIAAKLGLRKVGWIFTDLVSEDTRKGTVRYSRNKDTYFLSSEECITAGDFQNKHPNMCRLSPDGHFGSKFVTAVATGGPDNQVHFEGYQVSNQCMALVRDECLLPCKDAPELGYAKESSSEQYVPDVFYKDVDKFGNEITQLARPLPVEYLIIDITTTFPKDPVYTFSISQNPFPIENRDVLGETQDFHSLATYLSQNTSSVFLDTISDFHLLLFLVTNEVMPLQDSISLLLEAVRTRNEELAQTWKRSEQWATIEQLCSEYPHPLPRHPVAGAGEQPTLHSSPLPVVPWIPHPAASWQVPSAMQRVETRPPCQARGRLR,soluble
13,MGSDKIHHHHHHMSSSGKVIVVGAGIVGLATAWHLQEHGFEVSVLDRDGVAAGSSWGNAGWLAPAKTIPLSEPGLWTYGPKELFNPVSPMHMPLRVDPKLWLFLAQFMAQAFQRKWDSTMADLTEIDKVALEAFDELSIGGVEGLTHEGPFVIGFEEERQSAGFRKEIDGVSRHGQKVEMSRLENPQELAPMLNEQIQVAYRLEGQRFIEPGPYVQSLADAVVKRGGVIRAGAEVVHVAKGDRPAVILADGSREEADKVVVATGAWLPGLTREYGVKTLVQAGRGYSFSVATDIPAKHSVYLPHHRMACTPYEGRFRIAGTMEFRGPDEPFQQGRVDAIVSQAKKVMRGIDFNDRQDEWVGSRPVTPDGRPLIGQTKAENIYVAGGHGMWGVVLGPATGKYLAELMATGNTNPIIKPFDPLR,not soluble
14,MHKNLFHWLMERGYQVLVEKEVAITLELPFEHLATLEEIGHRAQLAIVIGGDGNMLGRARVLAKYDIPLIGINRGNLGFLTDIDPKNAYSQLEACLERGEFFVEERFLLEAKIERASEIVSTSNAVNEAVIHPAKIAHMIDFHVYINDKFAFSQRSDGLIVSTPTGSTAYSLSAGGPILTPNLNAIALVPMFPHTLTSRPLVVDGDSKISIRFAEHNTSQLEVGCDSQITLPFTPDDVVHIQKSEHKLRLLHLKIIIITMC,soluble
15,MKIYVDADACPVKDVIIFEATKAEIPVTLVTSFSHYSNAEQPKGVETIYVDSGADAADYRIMQLAQKEDLIVTQDYGLASLALAKGCIVLHHKGYKYTNENIDQLLQTRYLSAMVRKSGKRTKGPKPFTAEDKEKFRALFKSMIPLLEHHHHHH,soluble
